Test results as given in patent US20080279838, “Reconstructed Human Mariner Transposon Capable of Stable Gene Transfer Into Chromosomes in Vertebrates” (published 2008).

Biological target: T1, Hsmar1-Prime transposase (Hsmar1-P) (Homo sapiens, UniProt Q53H47 SEQ:1-343)
T1 chain: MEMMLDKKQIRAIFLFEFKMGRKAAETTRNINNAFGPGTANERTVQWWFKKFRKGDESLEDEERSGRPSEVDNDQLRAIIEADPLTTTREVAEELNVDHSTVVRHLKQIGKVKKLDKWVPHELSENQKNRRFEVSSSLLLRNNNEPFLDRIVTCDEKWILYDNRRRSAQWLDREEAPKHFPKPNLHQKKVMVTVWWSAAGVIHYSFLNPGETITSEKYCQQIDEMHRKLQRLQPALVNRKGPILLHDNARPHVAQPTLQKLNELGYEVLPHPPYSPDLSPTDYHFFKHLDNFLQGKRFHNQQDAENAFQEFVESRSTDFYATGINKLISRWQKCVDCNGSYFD
Test: cell_activity; HeLa cells, donor pHsmar1/neo plus helper; excision with 3 bp footprint, integration at TA
Conditions: tags: expressed from pFV-4a helper plasmid; chain copies: 2; 30 bp terminal inverted repeats in plasmid donor

B1: Hsmar1 transposon inverted repeats (left IR / right IR, flanking SV40-neo in pHsmar1/neo) (dsDNA)
DNA 1: TTAGGTTGGTGCAAAAGTAATTGCGGTTTT
DNA 2: AAAACCGCAATTACTTTTGCACCAACCTAA
  activity: ~20 fold increase in G418-resistant colonies
